Earlier results, collected in PMC3429939.
pKd: −log10 of the molar value.

Molecular target: galectin-1 CRD (Homo sapiens) (UniProt P09382)

pKd: 5.15
Substance: galectin-1 CRD (from UniProt P09382)
